Laboratory results: patent US20210069342A1 (LEGOCHEM BIOSCIENCES, published 2021)

What was measured:
[1] = target: T1, recombinant human ROR1-His (Sino Biological, 13968-H08H) (human, UniProt Q01973 30-406); assay: BLI (Octet), ROR1-His on Anti-Penta-His or AR2G biosensor, IgG 30 to 0.021 nM, 1:1 fit
T1 construct: extracellular domain; Bought protein; also called ROR1-HIS protein; not shown: His tag
Method: A 96-well black microplate (greiner bio one) was mounted on a biosensor tray case, and 200 10×KB or DW was added to each of 8 wells. Then Anti Penta His biosensors or 8 AR2G biosensors (ForteBio, USA) were inserted to hydrate for 10 minutes. 600 of the assay samples were diluted 2-fold or 3-fold to the appropriate assay concentrations, using 1×KB or 10×KB to 30 to 0.021 nM. To immobilize the antigen, recombinant human ROR1-His (Sino Biological, 13968-H08H) was diluted to 1 /ML with 10×KB or Sodium Acetate pH5 buffer. Immobilization was fixed at a threshold of 0.3 nm in the loading step. The association assay was carried out for 3 to 10 minutes, and the dissociation assay was carried out for 20 minutes. According to the Octet program template, the buffer was placed in a new 96-well black microplate according to order. As Baseline1, 200 10×KB or DW was placed. Then 200 each of 1 /mL of the antigen to be loaded, the ROR1-HIS protein, was added. As Baseline2, 200 10×KB or 1×KB was placed. Then to each well 30 to 0.021 nM of the diluted antibody and 200 each of 10×KB buffer or 1×KB corresponding to a reference blank was added. The temperature of the test plate was fixed at 30° C. After all of the samples were introduced, the equipment was started, and after the assay was completed, results were uploaded to the Octet Analysis 90 software, with KD values analyzed through 1:1 fitting. By obtaining KD values through the Octet assay method, it was confirmed that the anti-ROR1 antibody had strong binding potential to ROR1 antigen.

[2] = target: T2, recombinant mouse ROR1 protein (Acrobiosystems, RO1-M5221) (mouse, UniProt Q9Z139 30-403); assay: ELISA, wells coated with recombinant mouse ROR1 protein, IgG titrated, HRP anti-Fab detection, OD (450-650nm)
T2 construct: Bought protein; also called mouse ROR1 antigen
T2 sequence (Q9Z139 30-403 limits assumed): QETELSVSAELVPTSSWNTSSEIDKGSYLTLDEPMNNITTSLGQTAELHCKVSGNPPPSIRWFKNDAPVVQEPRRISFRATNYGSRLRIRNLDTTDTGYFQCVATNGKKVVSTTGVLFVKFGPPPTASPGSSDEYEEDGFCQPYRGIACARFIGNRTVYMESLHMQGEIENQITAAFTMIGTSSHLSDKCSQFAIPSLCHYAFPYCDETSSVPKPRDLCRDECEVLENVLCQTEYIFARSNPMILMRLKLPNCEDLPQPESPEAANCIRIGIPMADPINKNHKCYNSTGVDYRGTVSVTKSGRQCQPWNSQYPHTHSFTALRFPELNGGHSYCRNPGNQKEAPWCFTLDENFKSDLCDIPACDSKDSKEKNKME
Method: (§1) Anti-ROR1 antibody antigen binding affinity was assessed using an ELISA-based solution binding assay. Specifically, a 96-well microtiter plate (Nunc-Immuno Plates), NUNC) was coated for 16 hours at 4° C. with the ROR1 protein described below at a concentration of 1 in PBS solution, and non-specific binding sites were blocked for 2 hours with 3% BSA (bovine serum albumin). Here, the ROR1 protein used was, in the case of human ROR1, the ROR1-Fc or recombinant human ROR1-His (Sino Biological, 13968-H08H) of Embodiment 1. The ROR1-His used in ELISA, as stated in the above sentence, was a protein from the Sino Biological company (13968-H08H), and the ROR1-His of Embodiment 1 or recombinant mouse ROR1 protein was used (Acrobiosystems, RO1-M5221-100 )
(§2) Subsequently, the anti-ROR1 antibodies prepared in Embodiment 3 were added at the concentrations stated in FIG. 2 to a 96-well microtiter plate, and binding capacity was analyzed using ELISA as follows. Specifically, after incubating for 2 hours, the plate was washed 5 times with PBS containing 0.05% Tween 20, then HRP-conjugated Fab multiclonal antibody reagent (Perce, 31414) was diluted to 1:10,000 and placed in the washed microtiter plate. After reacting for 1 hour at 37° C., the ROR1 antibodies bonded to the plate were detected. After the reaction, color development was performed using TMB (Tetramethylbenzidine, Sigma, T0440). The enzymatic reaction was stopped using 0.5 mol/L sulfuric acid, and absorbance at 450 nm and 650 nm was measured (450 nm-650 nm) using a micro plate reader (Molecular Device)

[3] = target: T3, human ROR2 over-expressed on CHO cells (CHO-human ROR2) (human, UniProt Q01974 34-943); assay: flow cytometry on CHO-S cells transiently over-expressing human ROR2, FITC anti-human Fc detection, MFI ratio to 2nd Ab alone
T3 construct: whole, on cells; Negative control; also called family protein human ROR2
T3 sequence (Q01974 34-943): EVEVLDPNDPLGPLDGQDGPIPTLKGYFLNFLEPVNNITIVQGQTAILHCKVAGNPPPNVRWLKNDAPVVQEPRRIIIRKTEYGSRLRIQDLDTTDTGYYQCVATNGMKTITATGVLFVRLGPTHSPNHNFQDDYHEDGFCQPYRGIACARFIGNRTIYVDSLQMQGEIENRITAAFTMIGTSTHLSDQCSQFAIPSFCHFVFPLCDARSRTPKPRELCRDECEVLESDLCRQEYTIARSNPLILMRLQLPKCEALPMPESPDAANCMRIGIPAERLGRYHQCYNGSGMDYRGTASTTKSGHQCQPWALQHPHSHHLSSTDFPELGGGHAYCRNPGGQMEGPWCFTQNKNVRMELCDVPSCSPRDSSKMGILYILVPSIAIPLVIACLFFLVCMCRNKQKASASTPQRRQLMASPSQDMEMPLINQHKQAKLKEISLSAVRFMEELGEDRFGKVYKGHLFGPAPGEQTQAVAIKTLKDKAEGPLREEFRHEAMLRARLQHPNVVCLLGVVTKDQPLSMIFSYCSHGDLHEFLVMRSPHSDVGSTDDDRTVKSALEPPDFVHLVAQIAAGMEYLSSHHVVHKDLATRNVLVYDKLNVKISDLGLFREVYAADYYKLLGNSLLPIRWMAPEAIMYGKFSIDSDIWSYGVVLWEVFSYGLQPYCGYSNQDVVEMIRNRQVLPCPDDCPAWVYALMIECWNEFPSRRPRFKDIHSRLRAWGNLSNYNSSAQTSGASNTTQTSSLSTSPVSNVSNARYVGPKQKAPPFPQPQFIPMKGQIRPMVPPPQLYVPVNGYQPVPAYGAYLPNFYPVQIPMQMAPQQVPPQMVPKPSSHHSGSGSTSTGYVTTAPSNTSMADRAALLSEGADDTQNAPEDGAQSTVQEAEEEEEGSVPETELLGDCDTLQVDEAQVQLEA
Source text: (§3) For this experiment, using cell lines (FIG. 5 and FIG. 7, respectively) transiently (CHO-human ROR1, CHO-human ROR2, CHO-mouse ROR1) or stably (MC38-human ROR1) transfected with ROR1 gene to achieve artificial over-expression of ROR1 protein, an ROR1-expressing cell line (JeKo-1, Mino) (FIG. 6), a non ROR1-expressing cell line (MCF7) (FIG. 6) and a FACSCalibur (BD Biosciences) device was used to measure the degree to which anti-ROR1 antibody and ROR1 were bound, as follows. […] JeKo-1, Mino, CHO-human ROR1, CHO-mouse ROR1 and MC38-human ROR1 are all cell lines which express human ROR1 or mouse ROR1.
(§4) Specifically, after dissociating each cell line and washing in PBS, the number of cells was counted and adjusted to 2×10⁵ cells/200 PBS. Then the respective ROR1 monoclonal antibodies prepared in Embodiment 3 were diluted 5 times from 10 /mL or 10 /mL, then reacted for 1 hour at 4° C. After the reaction, the cells were washed in PBS, then FITC-marked constant region (Fc) specific antibody (Goat anti-human IgG FITC conjugate, Fc specific, Sigma, F9512, concentration 20 mg/ml) was suspended in 2 /1×10⁵ cells/200 PBS and reacted for 1 hour at 4° C. As for identification of the degree of expression of the transiently over-expressed human ROR1, human ROR2 and mouse ROR1, a commercially available FACS analysis antibody (anti-ROR1: R&D Systems, FAB 2000G, anti-ROR2: R&D, FAB20641P) was used. After reacting the cells were washed in PBS and analyzed using a FACSCalibur device. The negative control (2nd Ab) was only treated with FITC-marked constant region (Fc) specific antibody. The shifted readings for the respective experimental groups treated with ROR1 monoclonal antibody were compared against the shifted reading for the control group (MFI Ratio: MFI of anti-ROR1/MFI of 2nd Ab).

[4] = target: T1, recombinant human ROR1-His (Sino …); assay: ELISA, wells coated with human ROR1 protein (sheet: 'human ROR1'; text: ROR1-Fc or ROR1-His), IgG titrated, HRP anti-Fab detection, OD (450-650nm)
Method: as §1, §2

[5] = target: T4, human ROR1 expressed on the cell surface (human, UniProt Q01973 30-937); assay: flow cytometry on MC38-human ROR1 cells, IgG titrated, FITC anti-human Fc detection, MFI ratio to 2nd Ab alone; log axis whose first tick is printed 0
T4 construct: whole, on cells; also called cell surface-expressed ROR1 antigen; ROR1 on JeKo-1, Mino, CHO-human ROR1, MC38-human ROR1 and other cancer cell lines
T4 sequence (Q01973 30-937): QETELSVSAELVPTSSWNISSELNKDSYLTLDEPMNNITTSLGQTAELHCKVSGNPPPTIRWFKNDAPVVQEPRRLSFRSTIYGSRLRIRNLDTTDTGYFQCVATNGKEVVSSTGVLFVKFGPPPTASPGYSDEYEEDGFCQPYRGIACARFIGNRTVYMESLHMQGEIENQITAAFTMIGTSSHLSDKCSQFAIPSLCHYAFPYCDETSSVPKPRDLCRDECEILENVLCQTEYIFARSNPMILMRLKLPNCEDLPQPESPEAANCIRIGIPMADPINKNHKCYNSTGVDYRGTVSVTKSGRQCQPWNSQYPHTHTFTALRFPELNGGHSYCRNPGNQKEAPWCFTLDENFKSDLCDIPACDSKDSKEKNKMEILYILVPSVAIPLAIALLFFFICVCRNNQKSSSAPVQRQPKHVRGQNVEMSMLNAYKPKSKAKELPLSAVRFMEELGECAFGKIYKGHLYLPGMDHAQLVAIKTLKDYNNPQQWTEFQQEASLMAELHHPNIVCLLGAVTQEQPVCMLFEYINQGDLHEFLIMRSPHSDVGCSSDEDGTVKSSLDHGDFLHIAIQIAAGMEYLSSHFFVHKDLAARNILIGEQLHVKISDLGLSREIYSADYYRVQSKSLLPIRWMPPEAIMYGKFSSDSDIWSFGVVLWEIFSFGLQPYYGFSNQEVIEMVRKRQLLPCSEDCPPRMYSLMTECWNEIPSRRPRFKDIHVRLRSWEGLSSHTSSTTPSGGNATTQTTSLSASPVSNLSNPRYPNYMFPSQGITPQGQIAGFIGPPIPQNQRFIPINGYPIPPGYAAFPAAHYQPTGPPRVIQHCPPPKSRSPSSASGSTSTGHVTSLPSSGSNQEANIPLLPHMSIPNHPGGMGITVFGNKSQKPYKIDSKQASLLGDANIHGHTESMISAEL
Source text: as §3, §4

[6] = target: T1, recombinant human ROR1-His (Sino …); assay: ELISA, wells coated with human ROR1 protein (sheet: 'human ROR1'; text: ROR1-Fc or ROR1-His), IgG titrated, OD(450nm-650nm); x axis 'conc(nM)' numbered -5 to 2 (log10)
Method: as §1, §2

[7] = target: T2, recombinant mouse ROR1 protein …; assay: ELISA, IgG on coated mouse ROR1
Method: as §1
Subsequently, the anti-ROR1 antibodies prepared in Embodiment 3 were added at the concentrations stated in FIG. 2 to a 96-well microtiter plate, and binding capacity was analyzed using ELISA as follows. […] After reacting for 1 hour at 37° C., the ROR1 antibodies bonded to the plate were detected. […] The enzymatic reaction was stopped using 0.5 mol/L sulfuric acid, and absorbance at 450 nm and 650 nm was measured (450 nm-650 nm) using a micro plate reader (Molecular Device)

[8] = target: T5, mouse ROR1 over-expressed on CHO cells (CHO-mouse ROR1) (mouse, UniProt Q9Z139 30-937); assay: flow cytometry, CHO-mouse ROR1 cells
T5 construct: whole, on cells; also called cell surface-expressed mouse ROR1
T5 sequence (Q9Z139 30-937): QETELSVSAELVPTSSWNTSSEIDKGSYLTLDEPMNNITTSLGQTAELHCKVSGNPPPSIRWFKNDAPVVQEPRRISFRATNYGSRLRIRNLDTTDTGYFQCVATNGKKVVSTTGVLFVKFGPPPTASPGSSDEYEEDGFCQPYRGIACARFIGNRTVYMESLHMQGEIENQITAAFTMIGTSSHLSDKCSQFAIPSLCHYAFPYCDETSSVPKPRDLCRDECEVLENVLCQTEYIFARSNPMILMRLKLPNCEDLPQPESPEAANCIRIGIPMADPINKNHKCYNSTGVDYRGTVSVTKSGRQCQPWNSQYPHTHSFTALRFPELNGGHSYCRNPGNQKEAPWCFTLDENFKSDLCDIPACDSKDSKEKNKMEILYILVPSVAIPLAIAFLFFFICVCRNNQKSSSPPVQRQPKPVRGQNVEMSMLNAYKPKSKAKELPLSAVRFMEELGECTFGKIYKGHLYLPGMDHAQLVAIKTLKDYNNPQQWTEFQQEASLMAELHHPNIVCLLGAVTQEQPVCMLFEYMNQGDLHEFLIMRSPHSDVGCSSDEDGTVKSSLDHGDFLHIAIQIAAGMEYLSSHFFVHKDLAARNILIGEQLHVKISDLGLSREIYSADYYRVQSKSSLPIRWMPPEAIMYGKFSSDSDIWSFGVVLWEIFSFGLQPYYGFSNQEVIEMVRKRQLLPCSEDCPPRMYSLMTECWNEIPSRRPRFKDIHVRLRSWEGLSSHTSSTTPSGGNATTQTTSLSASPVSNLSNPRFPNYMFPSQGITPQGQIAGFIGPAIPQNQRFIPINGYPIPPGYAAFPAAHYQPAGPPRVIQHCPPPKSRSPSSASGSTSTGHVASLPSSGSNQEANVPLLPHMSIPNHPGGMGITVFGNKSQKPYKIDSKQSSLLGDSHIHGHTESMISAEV
Source text: as §3, §4

T1 sequence (Q01973 30-406): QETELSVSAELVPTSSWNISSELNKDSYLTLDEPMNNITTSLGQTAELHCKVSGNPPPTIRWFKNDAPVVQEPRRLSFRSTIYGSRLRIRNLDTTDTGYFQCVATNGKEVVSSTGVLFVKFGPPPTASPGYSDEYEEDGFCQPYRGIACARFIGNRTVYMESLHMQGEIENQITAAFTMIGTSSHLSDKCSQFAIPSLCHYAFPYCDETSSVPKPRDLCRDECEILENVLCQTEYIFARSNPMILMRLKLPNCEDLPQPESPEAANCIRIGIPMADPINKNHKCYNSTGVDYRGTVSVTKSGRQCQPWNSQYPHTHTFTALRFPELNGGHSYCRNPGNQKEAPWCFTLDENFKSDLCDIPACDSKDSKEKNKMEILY

| Binder | Kd [1] [nM] | koff [1] [s⁻¹] | kon [1] [M⁻¹ s⁻¹] | EC50 (read off the curve) [2] [nM] | binding result [3] | EC50 (read off the curve) [4] [nM] | EC50 (read off the curve) [5] [µg/mL] | EC50 (read off the curve) [6] [nM] | binding result [7] | binding result [8] |
| --- | --- | --- | --- | --- | --- | --- | --- | --- | --- | --- |
| anti-ROR1 IgG antibody AB4 (antibody, V domains shown, Full IgG form (human IgG1 constant region, lambda light chain), expressed in CHO-S cells) VH: EVQLLESGGGLVQPGGSLRLSCAASGFTFSSYDMSWVRQAPGKGLEWVSWISPDSGSIYYADSVKGRFTISRDNSKNTLYLQMNSLRAEDTAVYYCARPTGRFDYWGQGTLVTVSS VL: QSVLTQPPSASGTPGQRVTISCSGSSSNIGNNNVNWYQQLPGTAPKLLIYYDNKRPSGVPDRFSGSKSGTSASLAISGLRSEDEADYYCGTWDASLSGYVFGGGTKLTVLG | 0.0639 | 0.000116 | 1.81e+06 | ~0.2 | no binding | ~0.2 | ~0.1 |  |  |  |
| anti-ROR1 IgG antibody D2B12 (antibody, V domains shown, Full IgG form (human IgG1 constant region, lambda light chain), expressed in CHO-S cells) VH: EVQLLESGGGLVQPGGSLRLSCAASGFTFSNYDMSWVRQAPGKGLEWVSSISPSSGSSIYYADSVKGRFTISRDNSKNTLYLQMNSLRAEDTAVYYCAKAPGWCQAPSCYYDNAMDVWGQGTLVTVSS VL: QSVLTQPPSASGTPGQRVTISCSGSSSNIGNNDVSWYQQLPGTAPKLLIYDDSQRPSGVPDRFSGSKSGTSASLAISGLRSEDEADYYCGAWDDSLSGYVFGGGTKLTVLG | 0.803 | 0.000361 | 450000 | ~0.3 | no binding | ~0.2 | ~0.2 |  |  |  |
| anti-ROR1 IgG antibody A2F2 (antibody, V domains shown, Full IgG form (human IgG1 constant region, lambda light chain), expressed in CHO-S cells) VH: EVQLLESGGGLVQPGGSLRLSCAASGFTFSDYYMSWVRQAPGKGLEWVSSISPDGSNTYYADSVKGRFTISRDNSKNTLYLQMNSLRAEDTAVYYCAKNLRAFDYWGQGTLVTVSS VL: QSVLTQPPPASGTPGQRVTISCSGSSSNIGSNTVYWYQQLPGTAPKLLIYANSQRPSGVPDRFSGSKSGTSASLAISGLRSEDEADYYCGSWDYSLSGYVFGGGTKLTVLG | 0.0773 | 0.000119 | 1.53e+06 | ~0.3 | no binding | ~0.2 | ~0.1 | ~0.04 |  |  |
| anti-ROR1 IgG antibody DG6 (antibody, V domains shown, Full IgG form (human IgG1 constant region, lambda light chain), expressed in CHO-S cells) VH: EVQLLESGGGLVQPGGSLRLSCAASGFTFSDYDMSWVRQAPGKGLEWVSVISPDGGSIYYADSVKGRFTISRDNSKNTLYLQMNSLRAEDTAVYYCARDVVECNMNPCSYDNAMDVWGQGTLVTVSS VL: QSVLTQPPSASGTPGQRVTISCSGSSSNIGSNYVSWYQQLPGTAPKLLIYDDSHRPSGVPDRFSGSKSGTSASLAISGLRSEDEADYYCGAWDDSLSGYVFGGGTKLTVLG | 0.152 | 0.000338 | 2.23e+06 | ~0.1 | no binding | ~0.1 |  |  |  |  |
| anti-ROR1 IgG antibody A2F2 M1 (antibody, V domains shown, Full IgG form (human IgG1 constant region, lambda light chain), expressed in CHO-S cells) VH: EVQLLESGGGLVQPGGSLRLSCAASGFTFSDYYMSWVRQAPGKGLEWVSSISPDASNTYYADSVKGRFTISRDNSKNTLYLQMNSLRAEDTAVYYCAKNLRAFDYWGQGTLVTVSS VL: QSVLTQPPPASGTPGQRVTISCSGSSSNIGSNTVYWYQQLPGTAPKLLIYANSQRPSGVPDRFSGSKSGTSASLAISGLRSEDEADYYCGSWDYSLSGYVFGGGTKLTVLG |  |  |  |  |  |  |  | ~0.04 | binds | binds |
| anti-ROR1 IgG antibody BA6 M1 (antibody, V domains shown, Full IgG form (human IgG1 constant region, lambda light chain), expressed in CHO-S cells) VH: EVQLLESGGGLVQPGGSLRLSCAASGFTFSNYDMSWVRQAPGKGLEWVSAIYHSGSSKYYADSVKGRFTISRDNSKNTLYLQMNSLRAEDTAVYYCARGGNAAWDTGFDYWGQGTLVTVSS VL: QSVLTQPPSASGTPGQRVTISCSGSSSNIGSNDVSWYQQLPGTAPKLLIYYDNNRPSGVPDRFSGSKSGTSASLAISGLRSEDEADYYCGAWDDSLSGYVFGGGTKLTVLG |  |  |  |  |  |  |  | ~0.06 | binds | binds |
| anti-ROR1 IgG antibody A2F3 (antibody, V domains shown, Full IgG form (human IgG1 constant region, lambda light chain), expressed in CHO-S cells) VH: EVQLLESGGGLVQPGGSLRLSCAASGFTFSSYDMSWVRQAPGKGLEWVSWISPGGGSKYYADSVKGRFTISRDNSKNTLYLQMNSLRAEDTAVYYCARVNGRFDYWGQGTLVTVSS VL: QSVLTQPPSASGTPGQRVTISCSGSSSNIGNNNVSWYQQLPGTAPKLLIYADSHRPSGVPDRFSGSKSGTSASLAISGLRSEDEADYYCATWDYSLSGYVFGGGTKLTVLG | 0.024 | 3.31e-05 | 1.38e+06 | ~0.7 | no binding | ~0.6 | ~0.2 |  |  |  |
